Results on 14 sequences are retold here after the DeepSol protein solubility set.

The nature of this data set: soluble on expression in E. coli; label from the status in PepcDB or PDB records.
Turning to “MSLNFTLHTLNGIKLWLVLLLLSGAINVCRADSPRQTINFNRGWKYCQGDFDHAARPGFDDSEWEKIGLPHSFSTPYFMSKDFYVGYGWYRKAFPVKKEILGKKSFLEFDGVFQEAEIFVNGHLAGTHKGGYTGFSIDISAYLKEGKNLVAVRVNNCWRPDLAPRAGEHVFSGGIYRNVRLVIKPPTYIDWYGTWITTPDLAENKGKSGSVHIRTDVCNASGKTDTYRLLTTVVDAQGKEVSSVSTSQVLPDNATYTFEQQTKEIQAPQLWHPNHPALYKVISSLYHGQELIDRYETAFGFRWFEWTADRGFFLNGEHLYFKGANVHQDHAGWGDAVTETGMRRDIRLVKEAGFDLIRGSHYPHSPAFSQACDEIGMLFWAENAFWGIGGHKGDGYWNASAYPVNESDRAEFENSVKAQLKELIRIHRNHPSIIVWSMSNEPFFTAPETINPMRKLLEETVKLSKQLDPTRPAAVGGAQRPLGEKRIDKLGDIAGYNGDGSYIPEFQQPGMPTVVSEYGSTTADRPGEYDPGWGDLAKNNAQNGFPWRSGQAIWCAFDHGSIAGSALGKMGIIDYFRIPKRAWYWYRNAYKGITEGHHHHHH”, the “soluble on expression in E. coli” value is “not soluble”. The value for “MADDRGVFPGQWALSGGGVESGERIEEALRREIREELGEQLLLTEITPWTFSDDIRTKTYADGRKEEIYMIYLIFDCVSANREVKINEEFQDYAWVKPEDLVHYDLNVATRKTLRLKGLL” was “not soluble”; that for “MGTMVFVNFPVADVQRSTAFYEKLGFKKNEEFSTEEASSMMWDDQFWIMLLNHDFYGKFIQEKQIIDAQTTSGALISFSLESAEAVKQFGETAKANGGNCYRVDMGIPEEQMYGLEVQDLDGNSLEPVWMKM” was “not soluble”.

Take “MGSDKIHHHHHHMERIVDTADGRFDTRLTGTGNVTFILDHGMMSSHYQWGWLRGELLKQGRVFEYSRLGYGRSTRGKTKRLFTRQADELERVLALLDIKGPFVFIGHSLGAYISLELGRRRPDETAGIVLLDPSHPEVDAELPNWYERTQEEWNRFLYVLSHVRPLAWLIPDDLGARMFTSLPEADRIPMWRNMARKNHWRGTLDEWQAVEANNQHVLEVVEHIVPPVLVLSASDWAGGMPENWLNPELTKRINAAHERFAASLPDAAFHVIPNTNHYTIAGFSEEAATTIVSLIRNAFFK”: the “soluble on expression in E. coli” value is “not soluble”. The value for “MSTTIQYNSNYADYSISSYLREWANNFGDIDQAPAETKDRGSFSGSSTLFSGTQYAIGSSHSNPEGMIAEGDLKYSFMPQHTFHGQIDTLQFGKDLATNAGGPSAGKHLEKIDITFNELDLSGEFDSGKSMTENHQGDMHKSVRGLMKGNPDPMLEVMKAKGINVDTAFKDLSIASQYPDSGYMSDAPMVDTVGVVDCHDMLLAA” was “not soluble”; that for “MATVDPIRYPIGTFQAPQQFEAGEVQEWIAAIRGLPSDLRTAVSGLNDEQLNTPYREGGWTVAQVVHHLADASMNAFLRTKWGVTEDGPTVKPFAESEWAKTADACLLPIEPSLLLLDGLHARWAALLESMTEADFHRTVRPEGAAGEMPLYVLTALYAWHGKHHTAQVASLRKRKGW” was “soluble”.

On to “MGMIGYFAEIDSEKINQLLESTEKPLMDNIHDTLSGLRRLDIDKRWDFLHFGLTGTSAFDPAKNDPLSRAVLGEHSLEDGIDGFLGLTWNQELAATIDRLESLDRNELRKQFSIKRLNEMEIYPGVTFSEELEGQLFASIMLDMEKLISAYRRMLRQGNHALTVIVG”, for which the “soluble on expression in E. coli” value is “soluble”. Take “MKRKESAFKSMLKQAAPPIELDAVWEDIRERFVKEPAFEDITLESERKRIFKDFMHVLEHECQH”: the “soluble on expression in E. coli” value is listed as “soluble”.

In the case of “GSMNPEEKTVMLYNEYAEQAVLGSILTEPELIKECPLTPEHFSPGKHFNIYFTMQDLDRKGQSVDFTSIAARVGEKLPQLGGFGYLTELAASVASTTTFKQHCQTVSEYFQKRKAISIAQQIIENVNESDDGPVKPIQEAVSELMEIEASGTDDDDGSIDEALVTVYEEIESADGNITGVPSGFTELDRMTYGYKRRNFVLIAARPSMGKTAFALKQAKNMSDNDDVVNLHSLEMGKKENIKRLIVTAGSINAQKIKAARRDFASEDWGKLSMAIGEISNSNINIFDKAGQSVNYIWSKTRQTKRKNPGKRVIVMIDYLQLLEPAKANDSRTNQISQISRDLKKMARELDVVVIALSQLSRQVEQRQDKRPMLSDLRESGQLEQDADIIEFLYRDDYYDKESESKNIVEVIIAKHRDGPVGTVSLAFIKEYGNFVNLERRFDDR”, the “soluble on expression in E. coli” value is listed as “soluble”. Consider “MSTNEAAASQEDIALAQGAVLVKSCQVPDGSIPIRGFDFSTASGPDFSLSAILSSYMSTGFQATHLAQAIQQVNQMLSLRDTPLTCDDDEKLFPYPEGRQKRSCTIFLGYTSNLVTSGLREVLRYCVQRNLVDCIVTSAGGIEEDLIKCLKPSYLGTFTMDGAKLRSNGMNRAGNVLIPNDNYCAFEDWLMPILDECLVEQEEKHLNWTPSKLIQRLGERIGDESSILYWAAKHRIPVFCPALTDGSLGDMLYFHSVKSSPGLRVDIVEDVRHINTIAVKSFKTGSIILGGGVVKHHINNANLMRNGADHTVYINTGQEFDGSDSGAQPDEAVSWGKVKPSAGAVKVHAEATLVFPLLVAETFAKHEGHKD”, for which the “soluble on expression in E. coli” value is “not soluble”.

For the sequence “SEERLNYIVFNQNISNMANKEVRQALSYALNRNEMIESAYGKEGSVPAKSILVPEADFYTEEGVEGYDQDTNKAKDLLDKSGVKIDKLKIGYNTGRFGHKNYALVAQQELKKIGIEAEIVPYESKAFFNILFSNSTECDMYVNGYAWGLEPNPYRGMFETGQYCNQTKYSNAEIDALWEKGFTELNKEKREEIYKQIQQDISKDAPIYTIDYEQNLMAAQKNL”, the “soluble on expression in E. coli” value is “not soluble”. For “MGSDKIHHHHHHMSQNVYIGMTLKPWPILLDHYSMSYDGRVSVKSIGYGMHLFKYHGCIMLATRTKVDSTMAYDTITVSAPWWAKDKLHSFLEDTRGDISTEPKVNIFEETEWCRYGILKSSGFSELVLDEGFKQELMGEVDNFASRGESVVSKLTILLHGKTGTGKTGIARALAVEYHRDLYILNLSTVNDATIHKAIRKVPPGAMLLIEDCDCVKATVSRTAESNADNPPLTLGGVLNALDGIIPLDDCLVIMTTNHPDNLDPALIRKGRVDVSIEVPLISAKQVNEDYFERFGAVLNRTEPLLGCEVYELHRRANLRYGVCCKPV”, the “soluble on expression in E. coli” value was “not soluble”. Regarding “MGSDKIHHHHHHMKIKVALLDKDKEYLDRLTGVFNTKYADKLEVYSFTDEKNAIESVKEYRIDVLIAEEDFNIDKSEFKRNCGLAYFTGTPGIELIKDEIAICKYQRVDVIFKQILGVYSDMAANVATISGENDKSSVVIFTSPCGGVGTSTVAAACAIAHANMGKKVFYLNIEQCGTTDVFFQAEGNATMSDVIYSLKSRKANLLLKLESCIKQSQEGVSYFSSTKVALDILEISYADIDTLIGNIQGMDNYDEIIVDLPFSLEIEKLKLLSKAWRIIVVNDGSQLSNYKFMRAYESVVLLEQNDDINIIRNMNMIYNKFSNKNSEMLSNISIKTIGGAPRYEHATVRQIIEALTKMEFFEEILQ”, the “soluble on expression in E. coli” value was “not soluble”. As for “MSSSDTFEKLYIEQHDAPSEEQVEEWLATGEVLKLEQIVLDGRGHMLREKKTVNASSNEFLSGLTQYLTKIDAIHKAVEEGDVRRVKSLIDRPLLSTARDNYGMTPIHKALLHGQTNTVRFLLGRFPSCVNATDHRIFGILVDSVSNGVFNKSPLKKNAGRTPLHYAAADPNGEHMIKVLQKSGGDAFIEDKHGHTPFYYRTHGQRLNVRSMKDNAVMNQLISGQLSRPLLQDLEEDIYDWIHTGNIGKLEELVLTGYADLLLGRNHEVDDADSIGFLEVLPQYQAKIQSIHKAVETGNLRAVKLLTDRKKLSLCRDTRGLSPLHKAIVFERTDIAKYLIRNYPQSVNAMDQKKRTPLHYAAALKDGGYLYKVMRKSGADPNIYDCNGRPAKYYLKHTGEIDLSAMRLDTRAALKQVLHNRVAPSYLESSIQQWLRDGQLAKLEQLVLSGCGDLLQSRTSTHTETQAFLDRLPDYMDKIDGIHKSIKEGNLDKVKELMKTKKLAIARDRFGCTPLHSAVVHEHTEIVRYIAGHYNSVLNAPDYNKRTAMHYAAAARDGGHYLKILGKAGADPMAVDNEGRTPDYYRRNAVIDLKLIKDRDEDFETINEEYLEDGPLIDSPATPDSGSEGSFIDSARMLDDEDESIERHRFEKAFRGKIDLPTSENGVYLARTVAPVLTKALAEVLLRRPADPIGFIAEWLSKYVVEIPRHNGSH”, the “soluble on expression in E. coli” value is recorded as “not soluble”.
